Source: patent US20240043507A1 (RQ BIOTECHNOLOGY, published 2024)

Assays:
Experiment in all cases: cell-based or functional assay
[1] = target: spike protein of SARS-CoV-2 strain Victoria (SARS-CoV-2/human/AUS/VIC01/2020) (SARS-CoV-2, UniProt P0DTC2 14-1273)
[2] = target: spike protein of SARS-CoV-2 strain B.1.351 (SARS-CoV-2, UniProt P0DTC2 14-1273)
[3] = target: spike protein of SARS-CoV-2 strain B.1.351 (SARS-CoV-2, UniProt P0DTC2 14-1273); remark: listed apart in the source
[4] = target: spike protein of SARS-CoV-2 strain P.1 (SARS-CoV-2, UniProt P0DTC2 14-1273)
[5] = target: spike protein of SARS-CoV-2 strain B.1.1.7 (SARS-CoV-2, UniProt P0DTC2 14-1273)

Row | Binder | IC50 (FRNT, live virus neutralisation) [1] [µg/mL] | IC50 (FRNT, live virus neutralisation) [2] [µg/mL] | other results
1 | antibody 318 (antibody, V domains shown) VH: QVQLVQSGPEVKKPGTSVKVSCKASGFTLTSSAMQWVRQARGQRLEWIGWIVVGSGNTNYAQKFQERVTITRDMSTSTAYMELSSLRSEDTAVYYCAAGRGYNSDFDYWGQGTLVTVSS VL: AIRMTQSPGTLSLSPGERATLSCRASQSVSSSYLAWYQQRPGQAPRLLIYGTSSRATGIPDRFSGSGSGTDFTLTISRLEPEDFAVYYCQQYGYSVYTFGQGTKVDIK | 0.029 | 0.019 | 
2 | antibody 132 (antibody, V domains shown) VH: QVQLQQWGAGLLKPSETLSLTCAVYGGSFSGYYWSWIRQPPGKGLEWIGEINHSGSTNYNPSLKSRVTISVDTSKNQFSLKLSSVTAADTAVYYCARTDYYDSIDWGQGTLVTVSS VL: QSVLTQEPSLTVSPGGTVTLTCGSSTGAVTSGHYPYWFQQKPGQVPRTLIYDTRNKHSWTPARFSGSLLGGKAALTLSGAQPEDEAEYYCLLSSSGARVFGGGTKLTVL | 0.048 | > 10 | 
3 | antibody 175 (antibody, V domains shown) VH: EVQLVESGGGLIQPGGSLRLSCAASGLTVSRNYMSWVRQAPGKGLEWVSLIYSGGSTYYADSVKGRFTISRDNSKNTLYLQMNSLRAEDTAVYYCARDLRGEVWGQGTMVTVSS VL: not shown | 0.026 | > 10 | 
4 | antibody 253H165L (antibody, V domains shown) VH: not shown VL: DIVMTQSPGTLSLSPGERATLSCRASQSVRSSYLAWYQQKPGQAPRLLIYGASRRGTGIPDRFSGSGSGTDFTLTISRLEPEDFAVYYCQQYGSSPWTFGQGTKVEIK | 0.003 | 0.013 | 
5 | antibody 165 (antibody, V domains shown) VH: QVQLVQSGPEVKKPGTSVKVSCKASGFTFTSSAVQWVRQARGQRLEWIGWIVVGSGNTNYAQKFQESVTITRDMSTSTAYMELSSLRSEDTAVYYCAAPHCIGGSCHDAFDIWGQGTMVTVSS VL: DIVMTQSPGTLSLSPGERATLSCRASQSVRSSYLAWYQQKPGQAPRLLIYGASRRGTGIPDRFSGSGSGTDFTLTISRLEPEDFAVYYCQQYGSSPWTFGQGTKVEIK | 0.034 | 0.054 | 
6 | antibody 384 (antibody, V domains shown) VH: EVQLVESGGGLVKPGESLRLSCAASGFTFSDYYMTWIRQAPGKGLEWVSYIRSSGHTIYYADSVKGRFTISRDNAKNSLYLQMNSLRVEDTAVYYCARGGVLRFLEWPLNAFDIWGQGTMVTVSS VL: DIQLTQSPSSLSASVGDRVTITCRASQGISNYLAWYQQKPGKVPKLLIYAASTLQSGVPSRFSGSGSGTDFTLTISSLQPEDVATYYCQKYNNALGTFGQGTKVEIK [antibody 384, listing 1 of 2 here] |  | > 10 | 
7 | antibody 384 (antibody, V domains shown) VH: EVQLVESGGGLVKPGESLRLSCAASGFTFSDYYMTWIRQAPGKGLEWVSYIRSSGHTIYYADSVKGRFTISRDNAKNSLYLQMNSLRVEDTAVYYCARGGVLRFLEWPLNAFDIWGQGTMVTVSS VL: DIQLTQSPSSLSASVGDRVTITCRASQGISNYLAWYQQKPGKVPKLLIYAASTLQSGVPSRFSGSGSGTDFTLTISSLQPEDVATYYCQKYNNALGTFGQGTKVEIK [antibody 384, listing 2 of 2 here] |  |  | IC50 (FRNT neutralisation) [3]: > 10 µg/mL; IC50 (FRNT neutralisation) [4]: > 10 µg/mL; IC50 (FRNT neutralisation) [5]: 0.005 µg/mL
8 | antibody 170 (antibody, V domains shown) VH: QVQLVESGAEVKKPGESLKISCKGSGYSFTSYWIVWVRQMPGKGLEWMGIIYPGDSDTKYSPSFQGQVSISADKPISTAYLQWSRLKASDTAMYYCARLGNWLVDYWGQGTLVTVSS VL: DIVMTQSPLSLSVTPGQPASISCKSSQSLLHSDGKTYLYWYLQKPGQPPQLLMYEVSNRFSGVPDRFSGSGSGTDFTLKISRVESEDVGVYYCMQSIQLPRGITFGQGTRLEIK | 0.025 | > 10 | 
9 | antibody 88 (antibody, V domains shown) VH: QLQLQESGPGLVKPSQTLSLTCTVSGGSISSGSYNWTWIRQPAGKGLEWIGRIYNSGSTNYNPSLKSRVTISVDTSKNQLSLKVRSVTAADTAVYYCARHCSGGTCYPKYYYGMDVWGQGTTVTVSS VL: QSALTQPPSVSEAPRQRVTISCSGSSSNIGNNAVNWYQQFPGKAPKLLIYYDDLLPSGVSDRFSGSKSGTSASLAISGVQSEDEADYYCAAWDDSLNVVVFGGGTKLTVL | 0.033 | > 10 | 
10 | antibody 278 (antibody, V domains shown) VH: QVQLVQSGAEVKKPGASVKVSCKASGYIFIRYGISWVRQAPGQGLEWMGWISANNGYTNYAQKLQGRVTMTTDTSTSTAYMELRSLRSDDTAVYYCARDGGILTGYLDYFDHWGQGTLVTVSS VL: DIQMTQSPSSLSASVGDRLTITCRASQSIASYLNWYQQKPGKAPKLLIYAASSLQSGVPSRFSGSGSGTDFTLTISSLQPEDFATYHCQQSYSTLGITFGPGTKVDIK | 0.014 | 0.16 | 
11 | antibody 281 (antibody, V domains shown) VH: QVQLVESGGGLVQPGGSLRLSCAASGFPFSIYWMSWVRQAPGKGLEWVANIKQDGSEKYYVDSVKGRFTISRDNAKNSLYLHMNSLRGEDTAVYYCASRYYDFRPEAWFDYWGQGTLVTVSS VL: not shown | 0.005 | > 10 | 
12 | antibody 269 (antibody, V domains shown) VH: QVQLVESGGGLIQPGGSLRLSCAASGLTVNRNYMSWIRQAPGKGLEWVSVIYSGGSTFYADSVKGRFTISRDNSKNTLSLQMNSLRAEDTAIYYCARDFYEGSFDIWGQGTMVTVSS VL: AIQLTQSPSFLSASIGDRVTITCRASQGISSYLAWYQQKPGKAPKLLIYAASTLQSGVPSRFSGSGSGTEFTLTISSLQPEDFASYYCQQLNSYPAPVFGPGTKVDIK | 0.03 | > 10 | 
13 | antibody 40 (antibody, V domains shown) VH: QVQLVESGGGLVQPGGSLRLSCAVSGFTVSRNYMSWVRQAPGKGLEWVSLIYSGGSTFYADSVKGRFTISRDNSKNTLYLQMNSLRAEDTAVYYCARDLFHRSGYHDYWGQGTLVTVSS VL: not shown | 0.026 | 0.738 | 
14 | antibody 316 (antibody, V domains shown) VH: not shown VL: QAVLTQPPSASGSPGQSVTISCTGTSSDVGGYNYVSWYQQHPGKAPKLMIYEVSKRPSGVPDRFSGSKSGNTASLTVSGLQAEDEADYYCSSYAGSNHWVFGGGTKLTVL | 0.018 | > 10 | 
15 | antibody 398 (antibody, V domains shown) VH: QVQLVESGGGLVQPGGSLRLSCAASGFTVSSNYMTWVRQAPGKGLEWVSVIYSGGSTYYADSVKGRFTISRDNSKNTLYLQMNSLRADDTAVYYCARDSTADYDFWSGYYVGAFHIWGQGTMVTVSS VL: QTVLTQPASVSGSPGQSITISCTGTSSDVGGYNYVSWYQQHPGKAPKLMIYEVTKRPSGVPDRFSGSKSGNTASLTVSGLQAEDEADYYCSSYAGSNNWVFGGGTKLTVL | 0.091 | > 10 | 
16 | antibody 222 (antibody, V domains shown) VH: EVQLVESGGGLIQPGGSLRLSCAASGLTVSSNYMSWVRQAPGKGLEWVSVIYSGGSTFYADSVKGRFTISRDNSKNTLYLQMNSLGAEDTAVYYCARGEGSPGNWFDPWGQGTLVTVSS VL: DVVMTQSPGTLSLSPGERATLSCRASQSVPSSYLAWYQQKPGQAPRLLIYGASTRATGIPDRFSGSGSGTDFTLTISRLEPEDFAVYYCQHYDTSPRFGGGTKVDIK | 0.019 | 0.017 | 
17 | antibody 158 (antibody, V domains shown) VH: EVQLLESGGDLIQPGGSLRLSCAASGVTVSSNYMSWVRQAPGKGLEWVSIIYPGGSTFYADSVKGRFTISRDNSKNTLYLQMHSLRAEDTAVYYCARDLGSGDMDVWGKGTTVTVSS VL: DIVMTQSPSFLSASVGDRVTITCRASQGISSYLAWYQQKPGKAPKLLIQAASTLQSGVPSRFSGSGSGTEFTLTISSLQPEDFATYYCQQLNSYRYTFGQGTKVEIK | 0.031 | > 10 | 
18 | antibody 58 (antibody, V domains shown) VH: QVQLVESGGGLVQPGRSLRLSCAASGFTFDDYAMHWVRQPPGKGLEWVSGVSWNSGTIGYADSVKGRFIISRDNAKNSLYLQMNSLKAEDTALYYCAREVGGTFGVLISREGGLDYWGQGTLVTVSS VL: SYELTQPPSVSVAPGQTARITCGGNTIGSKSVHWYQQRPGQAPVLVVYDDSDRPSGIPERFSGSNSGNTATLTISRVEAGDEADYYCQVWDSSSDRVVFGGGTKLTVL | 0.041 | 0.136 | 
19 | antibody 150 (antibody, V domains shown) VH: QVQLVESGGGLIQPGGSLRLSCAASGVTVSSNYMSWVRQAPGKGLEWVSIIYSGGTTYYADSVKGRFTISRDSSMNTLYLQMNSLRAEDTAVYYCARDLMVYGIDVWGQGTTVTVSS VL: EIVMTQSPSSLSASVGDRVTITCRASQGISSYLAWYQQKPGKAPKLLIYAASTLQSGVPSRFSGSGSGTDFTLTISSLQPEDFATYYCQQLDSYPPGYTFGQGTKVDIK | 0.012 | 0.35 | B.1.351/Victoria ratio (IC50) [2]: 30
